From IntAct's records for PubMed 12796778

B1: Nuclear distribution protein nudE-like 1 (Mus musculus), Q9ERR1 (parent)
chain: MDGEDIPDFSSLKEETAYWKELSLKYKQSFQEARDELVEFQEGSRELEAELEAQLVQAEQRNRDLQADNQRLKYEVEALKEKLEHQYAQSYKQVSVLEDDLSQTRAIKEQLHKYVRELEQANDDLERAKRATIVSLEDFEQRLNQAIERNAFLESELDEKESLLVSVQRLKDEARDLRQELAVRERQQEVTRKSAPSSPTLDCEKMDSAVQASLSLPATPVGKGTENSFPSPKAIPNGFGTSPLTPSARISALNIVGDLLRKVGALESKLAACRNFAKDQASRKSYVPGSVNCGVMNSNGPECPRSGRATFFHKGAVNGFDPAPPPPGLGSSRPSSAPGMLPLSV

Variants of: B1
Conditions: with 1433e_mouse Ywhae

effect of a mutation on the interaction	Variant
decreasing interaction strength	MDGEDIPDFSSLKEETAYWKELSLKYKQSFQEARDELVEFQEGSRELEAELEAQLVQAEQRNRDLQADNQRLKYEVEALKEKLEHQYAQSYKQVSVLEDDLSQTRAIKEQLHKYVRELEQANDDLERAKRATIVSLEDFEQRLNQAIERNAFLESELDEKESLLVSVQRLKDEARDLRQELAVRERQQEVTRKSAPSSPTLDCEKMDSAVQASLSLPAAPVGKGTENSFPSPKAIPNGFGTSPLTPSARISALNIVGDLLRKVGALESKLAACRNFAKDQASRKSYVPGSVNCGVMNSNGPECPRSGRATFFHKGAVNGFDPAPPPPGLGSSRPSSAPGMLPLSV [T219A]
decreasing interaction strength	MDGEDIPDFSSLKEETAYWKELSLKYKQSFQEARDELVEFQEGSRELEAELEAQLVQAEQRNRDLQADNQRLKYEVEALKEKLEHQYAQSYKQVSVLEDDLSQTRAIKEQLHKYVRELEQANDDLERAKRATIVSLEDFEQRLNQAIERNAFLESELDEKESLLVSVQRLKDEARDLRQELAVRERQQEVTRKSAPSAPTLDCEKMDSAVQASLSLPATPVGKGTENSFPSPKAIPNGFGTSPLTPSARISALNIVGDLLRKVGALESKLAACRNFAKDQASRKSYVPGSVNCGVMNSNGPECPRSGRATFFHKGAVNGFDPAPPPPGLGSSRPSSAPGMLPLSV [S198A]
disrupting interaction strength	MDGEDIPDFSSLKEETAYWKELSLKYKQSFQEARDELVEFQEGSRELEAELEAQLVQAEQRNRDLQADNQRLKYEVEALKEKLEHQYAQSYKQVSVLEDDLSQTRAIKEQLHKYVRELEQANDDLERAKRATIVSLEDFEQRLNQAIERNAFLESELDEKESLLVSVQRLKDEARDLRQELAVRERQQEVTRKSAPSAPTLDCEKMDSAVQASLSLPAAPVGKGTENSFPAPKAIPNGFGTSPLTPSARISALNIVGDLLRKVGALESKLAACRNFAKDQASRKSYVPGSVNCGVMNSNGPECPRSGRATFFHKGAVNGFDPAPPPPGLGSSRPSSAPGMLPLSV [S198A;T219A;S231A]
decreasing interaction strength	MDGEDIPDFSSLKEETAYWKELSLKYKQSFQEARDELVEFQEGSRELEAELEAQLVQAEQRNRDLQADNQRLKYEVEALKEKLEHQYAQSYKQVSVLEDDLSQTRAIKEQLHKYVRELEQANDDLERAKRATIVSLEDFEQRLNQAIERNAFLESELDEKESLLVSVQRLKDEARDLRQELAVRERQQEVTRKSAPSSPTLDCEKMDSAVQASLSLPATPVGKGTENSFPAPKAIPNGFGTSPLTPSARISALNIVGDLLRKVGALESKLAACRNFAKDQASRKSYVPGSVNCGVMNSNGPECPRSGRATFFHKGAVNGFDPAPPPPGLGSSRPSSAPGMLPLSV [S231A]
